Laboratory results as given in patent US20230074436A1 (DENALI THERAPEUTICS, published 2023).
Blank lines part the entries; values can stand above or below the binder they belong to.

Tests used:
[1] = target: T1, alpha-synuclein peptide 1-61 (human); experiment: peptide ELISA
T1 construct: synthetic peptide coated on plate

[2] = target: T2, alpha-synuclein peptide 1-95 (human); experiment: peptide ELISA
T2 construct: synthetic peptide coated on plate

[3] = target: alpha-synuclein peptide 1-112 (human); experiment: peptide ELISA
[4] = target: T3, alpha-synuclein peptide 95-140 (human); experiment: peptide ELISA, coated fragment
T3 construct: synthetic peptide coated on plate

[5] = target: T4, alpha-synuclein peptide 61-140 (human); experiment: peptide ELISA, coated fragment
T4 construct: synthetic peptide coated on plate

[6] = target: T5, human alpha-synuclein monomer (human, UniProt P37840 1-140); experiment: direct ELISA on coated antigen;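 also: plates coated with recombinant human, mouse or rat alpha-synuclein, purified antibody titrated 10 µg/mL down to 0.6 ng/mL for 1 h, bound antibody detected by anti-rat HRP with TMB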
rat alpha-synuclein [7] = target: T6, rat alpha-synuclein (rat, UniProt P37377 1-140); experiment: direct ELISA on coated antigen;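 also: plates coated with recombinant human, mouse or rat alpha-synuclein, purified antibody titrated 10 µg/mL down to 0.6 ng/mL for 1 h, bound antibody detected by anti-rat HRP with TMB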
beta-synuclein protein = target: T7, beta-synuclein protein (human, UniProt Q16143 1-134); experiment: ELISA on coated synuclein, 1 ug/mL
T7 construct: species read from 'recombinant human alpha-synuclein protein, beta-synuclein protein, and gamma-synuclein protein'

gamma-synuclein protein = target: T8, gamma-synuclein protein (human, UniProt O76070 1-127); experiment: ELISA on coated synuclein, 1 ug/mL
T8 construct: species read from 'recombinant human alpha-synuclein protein, beta-synuclein protein, and gamma-synuclein protein'

[8] = target: T5, human alpha-synuclein monomer; experiment: ELISA, coated human alpha-synuclein
[9] = target: alpha-synuclein phosphorylated at serine 129 (human, UniProt P37840 1-140); experiment: SPR (Biacore), antibody captured, p129-Syn injected
[10] = target: T5, human alpha-synuclein monomer; experiment: SPR (Biacore), antibody captured, monomer injected, 1:1 fit
rat alpha-synuclein [11] = target: T6, rat alpha-synuclein; experiment: direct ELISA; member tied to this end by the EC50 values of Table 6 (2.0/0.03)
rat alpha-synuclein [12] = target: T6, rat alpha-synuclein; experiment: direct ELISA on coated antigen; upper end tied to 22D11 by Table 6 (2.0 nM rat / 0.03 nM human);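 as to Bmax (O.D. at 450 nm): plates coated with recombinant human, mouse or rat alpha-synuclein, purified antibody titrated 10 µg/mL down to 0.6 ng/mL for 1 h, bound antibody detected by anti-rat HRP with TMB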;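 as to EC50: plates coated with recombinant human, mouse or rat alpha-synuclein, purified antibody titrated 10 µg/mL down to 0.6 ng/mL for 1 h, bound antibody detected by anti-rat HRP with TMB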
[13] = target: T5, human alpha-synuclein monomer; experiment: ELISA, plate coated with the peptide or protein, antibody titrated, anti-rat HRP, A450
[14] = target: T3, alpha-synuclein peptide 95-140; experiment: as above
[15] = target: T4, alpha-synuclein peptide 61-140; experiment: as above
[16] = target: T9, human alpha-synuclein pre-formed fibrils (human, UniProt P37840 1-140); experiment: competition ELISA: fibrils titrated in solution against 0.6 nM antibody, free antibody read on aSyn-coated plate
[17] = target: T10, human alpha-synuclein oligomers (human, UniProt P37840 1-140); experiment: competition ELISA: oligomers titrated in solution against 0.6 nM antibody, free antibody read on aSyn-coated plate
[18] = target: T5, human alpha-synuclein monomer; experiment: direct ELISA, plate coated with 1 µg/mL recombinant human alpha-synuclein, antibody titrated, anti-rat HRP, A450
mouse alpha-synuclein = mouse alpha-synuclein (mouse, UniProt O55042 1-140); experiment: direct ELISA, plate coated with 1 µg/mL recombinant mouse alpha-synuclein, antibody titrated, anti-rat HRP, A450
[19] = target: T9, human alpha-synuclein pre-formed fibrils; experiment: SPR; SPR; aSyn fibrils
[20] = target: T5, human alpha-synuclein monomer; experiment: SPR; SPR; aSyn monomers
[21] = target: T10, human alpha-synuclein oligomers; experiment: SPR; SPR; aSyn oligomers
[22] = target: T5, human alpha-synuclein monomer; experiment: SPR (Biacore), aSyn monomers
[23] = target: T5, human alpha-synuclein monomer; experiment: KinExA kinetic exclusion assay
[24] = target: T9, human alpha-synuclein pre-formed fibrils; experiment: KinExA kinetic exclusion assay
[25] = target: T10, human alpha-synuclein oligomers; experiment: KinExA kinetic exclusion assay
[26] = target: T5, human alpha-synuclein monomer; experiment: SPR (Biacore 8K), IgG captured on anti-human Fc, aSyn monomer injected

antibody concentration at which ELISA is positive [1]: > 2600 ng/mL
antibody concentration at which ELISA is positive [2]: > 2600 ng/mL
antibody concentration at which ELISA is positive [3]: > 2600 ng/mL
antibody concentration at which ELISA is positive [4]: < 40 ng/mL
antibody concentration at which ELISA is positive [5]: < 40 ng/mL
Bmax (O.D. at 450 nm) [6]: 1.2 OD
EC50 [6]: 0.03 nM
Bmax (O.D. at 450 nm) (rat alpha-synuclein [7]): 0.05 OD
EC50 (rat alpha-synuclein [7]): 2 nM
binding result (beta-synuclein protein): no binding
binding result (gamma-synuclein protein): no binding
antibody concentration at which ELISA is positive [8]: < 40 ng/mL
Kd [9]: 42.9 nM
koff [9]: 0.0035 s⁻¹
kon [9]: 81600 M⁻¹ s⁻¹
Kd [10]: 18.1 nM
koff [10]: 0.00337 s⁻¹
kon [10]: 186000 M⁻¹ s⁻¹
fold higher EC50 for rat than for human alpha-synuclein (rat alpha-synuclein [11]): 66.7 fold
fold higher EC50 for rat alpha-synuclein compared to human alpha-synuclein (rat alpha-synuclein [12]): 66.7 fold
EC50 (read off the curve) [13]: ~0.04 µg/mL
EC50 (read off the curve) [14]: ~0.04 µg/mL
EC50 (read off the curve) [15]: ~0.03 µg/mL
IC50 [16]: 4.53 nM
IC50 [17]: 15.2 nM
EC50 (read off the curve) [18]: ~0.04 µg/mL
binding result (mouse alpha-synuclein): no binding (tested: 10 µg/ml (log 1))
B1: 22D11 (antibody, rat IgG1, V domains shown)
VH: AVQFVESGGGLVRPKESLKISCTASGFTFTNAAIYWVRQAPGKGLECIARIRTKPNNYATYYADSVRGRFTISRDDSKPMVYLQMNELKTEDTAMYYCAADASRGDYWGQGVMVTVSS
VL: DIQMTQSPSVLSASVGDRVTFSCKASQNINKNLDWYQQKLGEVPKVLIYFTNNLQTGIPSRFSGSGSGTDYTLTISSLQPEDVATYYCYQYTSGFTFGAGTKLELK
notes: also called clone 22D11

Kd [19]: 0.27 nM
Kd [20]: 0.12 nM
Kd [21]: 0.19 nM
Kd [22]: 0.21 nM
Kd [23]: 0.0157 nM
Kd [24]: 0.000638 nM
Kd [25]: 0.00886 nM
Kd [26]: 0.1 nM
B2: 20H4_HC5_L1_1 (antibody, V domains shown)
VH: EVQLVESGGGLVQPGGSLRLSCAASGFTFSNAAMYWVRQAPGKGLELLARIRTKPNNYATYHADSVKGRFTISRDDSKNTVYLQMNSLRAEDTAVYYCTADMATGDYWGQGTLVTVSS
VL: DIQMTQSPSSLSASVGDRVTITCKASQNINNNLDWYQQKPGKAPKPLIYSTNNLKTGVPSRFSGSGSGTDFTLTISSLQPEDFATYYCYQYKSAWTFGQGTKVEIK
notes: also called 20H4_H5_L1_1; hu20H4
